We go through two molecules from patent US20110142849A1 (IRM, published 2011).

Assay [1] deals with T1, recombinant human Pcsk9 (aa 31-692) with C-terminal his6 tag (human, UniProt Q8NBP7 31-692).
T1 construct: In the TR-FRET assay it carried a fluorophore (hPcsk9-AF); also called hPCSK9; hPcsk9
Description: Solution Equilibrium Titration (SET), MSD read-out. As for the experimental part:
The binding kinetics of IgGs and Fab fragments were analyzed using a Solution Equilibrium Titration (“SET”) assay. Briefly, serial dilutions of hPCSK9 were added to 60 pM IgG or Fab and incubated overnight. A 96-well Standard Bind microtiter plate (Meso Scale Discovery) was coated with 1 μg/ml hPCSK9 and incubated overnight, washed with PBS/0.05% (w/v) Tween 20, blocked with PBS/5% (w/v) BSA, and washed again. The antibody-antigen preparation was added to the PCSK9-coated Standard Bind plate and incubated for 30 min at room temperature. After three additional washing steps, Sulfo-Tag-labeled goat-anti-human-detection antibody (R32AJ-5, Meso Scale Discovery) was added and incubated one hour at room temperature. After washing the plate three times, Read Buffer (Meso Scale Discovery) was added and electrochemiluminescence (ECL) signals were measured by a Sector Imager 6000 (Meso Scale Discovery). ECL data were processed with the excel add-in XLfit 4.3.2 (ID Business Solutions) using the fitting model applicable for antibodies described in Piehler, et al., (1997) J Immunol Methods 201:189-206.

The target of a further assay is T2, hβ-Klotho (human, UniProt Q86Z14).
T2 construct: panel antigen of the specificity ELISA
T2 sequence (antigen, looked up): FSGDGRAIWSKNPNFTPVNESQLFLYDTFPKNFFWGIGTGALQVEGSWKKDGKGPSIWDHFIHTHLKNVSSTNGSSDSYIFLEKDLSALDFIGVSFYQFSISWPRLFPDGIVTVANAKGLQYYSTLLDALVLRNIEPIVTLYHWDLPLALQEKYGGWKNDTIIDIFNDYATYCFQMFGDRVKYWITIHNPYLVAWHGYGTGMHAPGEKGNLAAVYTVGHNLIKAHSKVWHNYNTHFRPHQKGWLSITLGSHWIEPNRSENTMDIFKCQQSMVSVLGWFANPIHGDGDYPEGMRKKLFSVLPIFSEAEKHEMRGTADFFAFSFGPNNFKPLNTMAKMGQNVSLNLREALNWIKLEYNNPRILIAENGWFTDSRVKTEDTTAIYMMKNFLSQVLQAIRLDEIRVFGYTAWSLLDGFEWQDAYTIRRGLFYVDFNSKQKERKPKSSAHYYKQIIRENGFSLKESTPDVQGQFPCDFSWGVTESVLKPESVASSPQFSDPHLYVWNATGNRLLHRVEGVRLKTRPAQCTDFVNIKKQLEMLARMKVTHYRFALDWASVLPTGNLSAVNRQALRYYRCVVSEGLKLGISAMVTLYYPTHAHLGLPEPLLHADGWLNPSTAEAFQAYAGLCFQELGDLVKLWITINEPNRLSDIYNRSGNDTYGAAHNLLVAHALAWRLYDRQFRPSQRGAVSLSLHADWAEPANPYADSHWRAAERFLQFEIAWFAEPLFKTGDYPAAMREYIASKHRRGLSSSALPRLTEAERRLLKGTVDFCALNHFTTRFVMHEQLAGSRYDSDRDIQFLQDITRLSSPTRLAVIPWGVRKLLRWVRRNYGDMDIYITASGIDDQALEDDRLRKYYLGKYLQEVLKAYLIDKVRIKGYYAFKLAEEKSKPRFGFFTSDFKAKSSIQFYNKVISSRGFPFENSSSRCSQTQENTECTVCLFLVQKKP
As to the kind of experiment: specificity ELISA on coated antigen (88 ng per well), antibody at 2 µg/mL, ABS650. As for the experimental part:
For specificity ELISAs on purified human and mouse IgGs, a 384-well plate was coated with a panel of purified human or mouse antigens at 88 ng per well and incubated overnight at 4° C. The plate was blocked and washed as described above, then 22 μL of purified mouse or human anti-PCSK9 antibody diluted to 2 μg/mL in PBS was added to each well. The plate was incubated for 1 hr at 37° C. then washed with PBST. Anti-mouse Fc antibody (Jackson ImmunoResearch Labs #115-035-071) or anti-human kappa antibody (Sigma #A7164) conjugated to HRP was diluted 1:5000 in PBS (25 μL) and added to each well. The plate was incubated for 1 hr at room temperature, then washed and developed as described above.
In order to test whether the antigen specificity of the parental mouse antibody LFU720 was retained in the final Humaneered™ IgGs, LGT209, LGT210 and LGT211, binding of the antibodies to a panel of human and mouse antigens (as well as human PCSK9) was tested in an ELISA assay.
(In an ELISA, binding on a coated surface is turned into a signal by an enzyme label.)

Assay [2] addresses T3, mouse Pcsk9 with C-terminal his6 tag (mouse, UniProt Q80W65 35-694, limits assumed).
T3 construct: also called murine PCSK9
Description: ELISA.

A further assay deals with T4, human LDL-R protein (human, UniProt P01130 22-788, limits assumed).
T4 construct: Labelled with europium in the TR-FRET assay; also called hLDL-R; hLDL-R-Eu (europium-labelled)
T4 sequence (P01130 22-788 limits assumed): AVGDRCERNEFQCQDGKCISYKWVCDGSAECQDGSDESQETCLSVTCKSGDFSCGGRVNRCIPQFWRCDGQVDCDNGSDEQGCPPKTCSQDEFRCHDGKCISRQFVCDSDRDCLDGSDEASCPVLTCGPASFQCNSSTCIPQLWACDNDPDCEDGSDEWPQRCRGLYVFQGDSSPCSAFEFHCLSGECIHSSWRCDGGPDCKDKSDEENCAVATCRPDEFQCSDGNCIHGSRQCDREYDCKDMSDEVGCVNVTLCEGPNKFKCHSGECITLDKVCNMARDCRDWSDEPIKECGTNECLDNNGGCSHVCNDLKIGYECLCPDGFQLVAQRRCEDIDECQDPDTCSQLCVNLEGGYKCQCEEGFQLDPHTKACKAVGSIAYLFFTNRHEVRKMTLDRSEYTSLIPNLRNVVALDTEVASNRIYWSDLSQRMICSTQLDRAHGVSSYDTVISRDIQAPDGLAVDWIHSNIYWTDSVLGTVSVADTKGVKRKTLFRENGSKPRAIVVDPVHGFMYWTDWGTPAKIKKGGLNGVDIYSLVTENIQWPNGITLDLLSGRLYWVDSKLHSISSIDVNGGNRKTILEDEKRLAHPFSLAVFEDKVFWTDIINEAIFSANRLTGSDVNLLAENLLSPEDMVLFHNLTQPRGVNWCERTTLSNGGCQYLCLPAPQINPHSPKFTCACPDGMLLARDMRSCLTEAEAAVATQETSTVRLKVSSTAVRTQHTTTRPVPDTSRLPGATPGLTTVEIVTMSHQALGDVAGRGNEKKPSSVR
As to the kind of experiment: ELISA.

The target in assay [3] is T1, recombinant human Pcsk9 (aa 31-692) …. As to the kind of experiment: TR-FRET, disruption of hLDL-R-Eu and hPcsk9-AF. As for the experimental part:
The TR-FRET assay was performed in 384-well white, shallow plates (Perkin Elmer, 6008280). hPcsk9-AF (10.7 nM) was incubated with serial dilutions of unlabeled hPcsk9 protein, EGF-A peptide, or NVP-LFU720-AX-1 antibody for 30 minutes at room temperature in 15 μL of assay buffer (20 mM HEPES, pH 7.2, 150 mM NaCl, 1 mM CaCl₂, 0.1% v/v Tween 20, and 0.1% w/v BSA). This was followed by addition of 5 μL of hLDL-R-Eu (4 nM) in assay buffer to the hPcsk9 and NVP-LFU720-AX-1 preincubated complex, and incubation at room temperature for 90 minutes. The final concentrations of these labeled proteins were 8 nM of hPcsk9-AF and 1 nM of hLDL-R-Eu. The TR-FRET signal was measured with EnVision 2100 multilabel reader (Perkin Elmer) at 330 nm excitation and 665 nm emission. Data was converted to normalized values using the following formula: [(665 nm value×10,000)/(615 nm value)]. The percentage inhibition was calculated with the following formula: 100-[(normalized value of treated sample/averaged normalized value of untreated samples)×100]. The percentage inhibition dose response curves were plotted using Prism version 5 with the formula, Y=Bottom+(Top−Bottom)/(1+10̂((LogIC₅₀−X)*HillSlope)) (GraphPad Prism Software).
TR-FRET assay was used for determining if the anti-hPcsk9 antibody NVP-LFU720 could disrupt the interaction between hPcsk9-AF and hLDL-R-Eu labeled proteins. […]
On the technique in general: In TR-FRET formats the signal depends on donor and acceptor labels being close together.

T3 sequence (Q80W65 other isoform, or with tags, fused parts or gaps limits assumed): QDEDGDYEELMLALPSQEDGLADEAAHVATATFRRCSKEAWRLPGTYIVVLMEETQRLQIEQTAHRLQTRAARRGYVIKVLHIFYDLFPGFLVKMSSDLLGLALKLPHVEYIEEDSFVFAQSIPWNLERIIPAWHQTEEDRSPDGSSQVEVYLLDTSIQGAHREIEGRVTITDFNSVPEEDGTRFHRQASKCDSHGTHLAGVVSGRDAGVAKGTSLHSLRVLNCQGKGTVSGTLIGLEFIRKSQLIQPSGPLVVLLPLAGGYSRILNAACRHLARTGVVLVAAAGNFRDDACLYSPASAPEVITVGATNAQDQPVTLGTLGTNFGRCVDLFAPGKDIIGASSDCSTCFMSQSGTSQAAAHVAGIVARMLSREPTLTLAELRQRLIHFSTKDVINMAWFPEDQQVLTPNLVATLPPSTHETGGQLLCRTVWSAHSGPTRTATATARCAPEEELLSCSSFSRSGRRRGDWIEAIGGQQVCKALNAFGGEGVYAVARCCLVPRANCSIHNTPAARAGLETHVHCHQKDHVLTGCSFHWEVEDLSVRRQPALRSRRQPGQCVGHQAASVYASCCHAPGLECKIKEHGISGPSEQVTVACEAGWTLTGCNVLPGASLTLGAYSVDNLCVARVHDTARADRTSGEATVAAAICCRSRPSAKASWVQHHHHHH

B1: NVP-LGT211 (antibody, human IgG1, V domains shown)
VH: QVQLVQSGAEVKKPGASVKVSCKASGYTFSTMYMSWVRQAPGQGLEWMGRIDPANEHTNYAQKFQGRVTMTRDTSISTAYMELSRLTSDDTAVYYCARSYYYYAMDYWGQGTLVTVSS
VL: QIVLTQSPATLSVSPGERATLSCRASQSVSYMHWYQQKPGQAPRLLIYGVFRRATGIPDRFSGSGSGTDFTLTIGRLEPEDFAVYYCLQWSSDPPTFGQGTKLEIKR
notes: Silent human IgG1 kappa; also called pSR74 (Vh) + pJG10 (Vk); pSR074 + pJG10
As to B1, in assay [1], the Kd is 0.19 nM. In addition, the binding result with hβ-Klotho is reported as “no binding (tested: 2 µg/mL)”.

B2: NVP-LFU720 (antibody, V domains shown)
VH: EVQLQQSGAELMKPGASVKLSCTASGFNIKDMYMSWVRQRPEQGLEWIGRIDPANGHTNYDPKFQAKATITTDTSSKTAYLHLSSLTSEDTAVYYCARSYYYYAMDYWGQGTSVTVSS
VL: QIVLTQSPAIMSASPGEKVTMTCSASSSVSYMHWYQQKPGSSPRLWIYLTFNLASGVPARFSGSGSGTSYSLSISSMEAEDAATYYCLQWSSDPPTFGSGTKLEIK
notes: Murine anti-human Pcsk9 IgG1-kappa monoclonal antibody from a hybridoma; also called 5P20; NVP-LFU720-AX-1
Turning to B2, the binding result in assay [2] is “no binding”; with human LDL-R protein it was “no binding”; with hβ-Klotho it was “no binding (tested: 2 µg/mL)”. The IC50 in assay [3] was over 1000 nM.

Broadly, the Kd is the free concentration of one partner at which half of the binding sites on the other are occupied at equilibrium, for simple one-to-one binding. As a reminder, the IC50 is the point on the concentration scale where inhibition reaches its midpoint.
